Test [1] addresses murine B7-DC (murine) (UniProt Q9WUL5). The experiment in a line: flow cytometry competition on murine bone marrow derived DC; DC preincubated with PD-1.Ig, then stained with sHIgM12.
For test [2] the target is unchanged. The test is described as follows: flow cytometry on 293T cells transfected with murine B7-DC.
The target is the same in test [3]. The test is described as follows: cell-based or functional assay.
The target is the same in test [4]. The test is described as follows: flow cytometry competition on murine bone marrow derived DC; DC preincubated with sHIgM12, then stained with PD-1.Ig.

Sequence of murine B7-DC (murine) (Q9WUL5 20-247): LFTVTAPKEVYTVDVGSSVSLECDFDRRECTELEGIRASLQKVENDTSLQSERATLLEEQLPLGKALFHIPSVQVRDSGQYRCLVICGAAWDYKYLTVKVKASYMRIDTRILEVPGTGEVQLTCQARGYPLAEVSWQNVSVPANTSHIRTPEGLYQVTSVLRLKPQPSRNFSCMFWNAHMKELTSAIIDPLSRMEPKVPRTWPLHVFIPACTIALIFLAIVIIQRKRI

PD-1.Ig fusion protein (Fc fusion) had a sHIgM12 staining remaining (% of the level without PD-1) in the test with murine B7-DC (murine) [1] of 50%.

In the test with murine B7-DC (murine) [2], “sHIgM12 (pentameric human monoclonal IgM/kappa antibody, B7-DC cross-linking antibody)” returned a percent of transfected cells stained of 97%. In the test with murine B7-DC (murine) [3], this substance displayed an FITC-MFI (uptake of FITC-BSA by bone marrow derived DC in vitro) of 584 MFI; an FITC-MFI (uptake of FITC-OVA by splenic DC after treatment in vivo) of 116 MFI; a GFP+, CD11c+ DC recovered from draining lymph nodes, against polyclonal HIgM control of 5 fold; an IL-12 p70 release by DC (ELISA), against LPS of 3 fold. Moreover, in the test with murine B7-DC (murine) [3], the ability of lymph node DC to induce an antigen-specific T cell response is 10 fold and the percentage of cellular metabolism (Alamar Blue) maintained 24 hours after cytokine withdrawal is 80%. Also, the PD-1 binding remaining (% of the level without sHIgM12) in the test with murine B7-DC (murine) [4] was found to be 20%.

The values above are taken from patent EP2481750A1.
